# From publication PMC12063518, “IAT4, a New Indolamine N‐Acetyltransferase in Saccharomyces cerevisiae Involved in Melatonin Biosynthesis” (Journal of Pineal Research, 2025)
# B1: Iat4 (Saccharomyces cerevisiae S288C) (protein)
# chain: MSFENKLPTPLENNDAKGHMVCTLNKTTDARRAAETLSIAFSNSPAFHFICKKILNIPLAEKVPTRTITTDIISPFLDSPYGEISEVNTFDAVAVWSLPPHVPKARSNDAKFNKDFIDDLNARVKQVIPNGINYYYLFCIGKNLNEKGIRGSVRTIFEEYKRRADEENCAIVLEAIAEHAKSVYEYFGFRNYMTFKYGECEVDSNGNCDPNGEGFTAYLMIYHKDGNKVLKE
# notes: GST fusion from pGEX-5X-1, E. coli Rosetta (DE3), glutathione Sepharose; native protein 232 aa
# B2: Hpa2 (Saccharomyces cerevisiae S288C) (protein)
# chain: MSNTSEDNITVRFVTENDKEGWQRLWKSYQDFYEVSFPDDLDDFNFGRFLDPNIKMWAAVAVESSSEKIIGMINFFNHMTTWDFKDKIYINDLYVDENSRVKGAGGKLIQFVYDEADKLGTPSVYWCTDESNHRAQLLYVKVGYKAPKILYKRKGY
# notes: same enzymatic assay as Iat4
# B3: Paa1 (Saccharomyces cerevisiae S288C) (protein)
# chain: MASSSSTLPLHMYIRPLIIEDLKQILNLESQGFPPNERASEEIISFRLINCPELCSGLFIREIEGKEVKKETLIGHIMGTKIPHEYITIESMGKLQVESSNHIGIHSVVIKPEYQKKNLATLLLTDYIQKLSNQEIGNKIVLIAHEPLIPFYERVGFKIIAENTNVAKDKNFAEQKWIDMERELIKEEYDN
# Columns and labels:
# Experiment in all cases: purified protein
# [1] = substrate: COc1ccc2[nH]cc(CCN)c2c1; format: biochemical, Saccharomyces cerevisiae; details: 0.2 mM acetyl-CoA, pH 8.8, 37 °C, 15 min
# [2] = substrate: NCCc1c[nH]c2ccc(O)cc12; format: biochemical, Saccharomyces cerevisiae; details: 0.2 mM acetyl-CoA, pH 8.8, 37 °C
# [3] = substrate: NCCc1c[nH]c2ccccc12; format: biochemical, Saccharomyces cerevisiae; details: 0.2 mM acetyl-CoA, pH 8.8, 37 °C, 15 min
# [4] = substrate: NCCc1c[nH]c2ccc(O)cc12; details: 0.2 mM acetyl-CoA, pH 8.8, 37 °C, 15 min enzymatic assay as Iat4, fit R2 = 0.825
protein,measurement,setting,value
B1,Km,[1],353 µM
same,Km,[2]; 15 min,0.93 mM
same,Km,[3],356 µM
B2,Km,"[2]; 15 min enzymatic assay as Iat4, unit not given, mM from the preceding sentence",6.82 ± 1.62 mM
B3,Km,[4],4250 ± 1460 µM
